Biological target: T1, Aβ1-42 (Homo sapiens, UniProt P05067)
T1 construct: Aβ1-42 (American Peptide); purchased American Peptide
Experiment: Aβ1-42 fibril formation ThT fluorescence assay
Format: biochemical
Settings: for decrease in ThT fluorescence of Aβ1-42: 30 μM Aβ1-42, 48 hrs
Protocol: The effect of five synthesized αB crystallin peptides STSLSPFYLRPPSFLRAP (ST), DRFSVNLDVKHFS (DR), HGKHEERQDE (HG), LTITSSLSSDGV (LT), and ERTIPITRE (ER) on Aβ1-42 fibrillation was measured using the ThT fluorescence assay (FIG. 1). The formation and inhibition of Aβ1-42 fibrils was qualitatively verified by fluorescence and bright-field microscopy. The concentration and stoichometry of the peptides was varied relative to Aβ1-42 to establish a concentration curve. In addition, the effect of two known inhibitors of Aβ1-42 fibrillation (APS and NAP) and a control neuropeptide (AT1) with no fibril inhibition activity was measured and compared to the effect of the αB crystallin peptides on Aβ1-42 fibrillation. The ThT fluorescence of 30 μM Aβ1-42 alone incubated at 37° C. for 48 hrs increased from ˜350,000 to ˜450,000 RFU. […] In contrast, 6 μM DR, LT, and […] had no effect on Aβ1-42 fibril formation. […] Increasing the concentration of the DR peptide to 30 μM decreased the ThT fluorescence by approximately 50%. […] However, when the concentrations of the LT and ER peptides were increased to 150 μM, a 60-100% decrease in ThT fluorescence was measured. […] The negative control peptide AT1 had no effect on Aβ1-42 fibril formation even at a concentration as high as 300 μM.
The Thioflavin T (ThT) fluorescence of Aβ1-42 in the presence of varying concentrations of αB crystallin peptides and controls was measured. […] Addition of 6 μM DR, LT, and ER had no effect on the ThT fluorescence of Aβ1-42. When the concentration of the peptides was increased to 30 μM (1:1::peptide:Aβ1-42), the αB crystallin peptides ST, DR, HG decreased the ThT fluorescence by 50-100%. At the same concentrations, APS and NAP decreased the ThT fluorescence by 30-100%. When the concentration of the peptides was increased further to 150 μM ([…]), four of the five αB crystallin peptides DR, HG, LT, and ER decreased the ThT fluorescence by 58-100%. At the same concentrations, APS and NAP decreased the fluorescence by 28-100%. […] The formation and inhibition of Aβ fibrils was verified microscopically.
Thioflavin T (ThT) Assays. The effect of the five αB crystallin peptides (ST, DR, HG, LT, and ER) on Aβ1-42 fibril formation was measured using the ThT fluorescence assay (44-47) and compared with two known inhibitors of Aβ1-42 fibril formation (Tramiprosate and NAP)(34, 36) and a negative control neuropeptide Angiotensin 1 (AT1). Thioflavin T is a fluorescent dye that has a high affinity for amyloid fibrils and becomes fluorescent (excitation λ=450 nm, emission λ=486 nm) when bound to fibrils. For the Aβ1-42 assays, peptides and APS were dissolved to 2 mM in 0.25% DMSO and diluted accordingly, while Aβ1-42 was dissolved in 20 mM Tris-Cl, pH 7.40, and 100 mM NaCl. For the 5:1::inhibitor:Aβ1-42 assay, 10 μL of 450 μM peptide or APS was mixed with 10 μL of 90 μM Aβ1-42), 7 μL 20 mM Tris-Cl, 100 mM NaCl, pH 7.4 and 3 μL of 1 mM ThT. For the 1:1::inhibitor:Aβ1-42 assay, 10 μL of 90 μM peptide or APS was mixed with 10 μL of 90 μM Aβ(1-42), 7 μL 20 mM Tris-Cl, 100 mM NaCl, pH 7.4 and 3 μL of 1 mM ThT. For the 1:5::inhibitor:Aβ1-42 assay, 10 μL of 18 μM peptide or APS was mixed with 10 μL of 90 μM Aβ(1-42), 7 μL 20 mM Tris-Cl, 100 mM NaCl, pH 7.4 and 3 μL of 1 mM ThT. ThT fluorescence in relative fluorescence units (RFU) was measured using a Perkin Elmer Victor^3 V plate reader. Assays were performed in 384-well fluorescence plates in duplicates or triplicates. Samples were incubated at 37° C. for a total of 48 hours. ThT fluorescence was measured at 0, 24, and 48 hours. The effect of the peptides and APS was calculated as percentage fibril formation relative to Aβ1-42 alone (100%) at the end of 48 hours.

DRFSVNLDVKHFS
decrease in ThT fluorescence of Aβ1-42 (6 μM inhibitor, 37° C.): no effect

ERTIPITRE
decrease in ThT fluorescence of Aβ1-42 (6 μM inhibitor, 37° C.): no effect
decrease in ThT fluorescence of Aβ1-42 (30 μM inhibitor (1:1)): no effect

HGKHEERQDE
effect on Aβ1-42 fibril formation, over all concentrations (any concentration): most effective inhibitor

LTITSSLSSDGV
decrease in ThT fluorescence of Aβ1-42 (6 μM inhibitor, 37° C.): no effect
decrease in ThT fluorescence of Aβ1-42 (30 μM inhibitor (1:1)): no effect

STSLSPFYLRPPSFLRAP
inhibition of Aβ fibrillation (peptide to substrate concentration of 1:5): 100%
